Test results as given in IntAct's records for PubMed 23075851.

What was measured:
caf1a_human CHAF1A = caf1a_human CHAF1A (UniProt Q13111)
DAXX, Q9UER7-1 [1] = target: DAXX, Q9UER7-1
DAXX, Q9UER7-1 [2] = target: DAXX, Q9UER7-1; remark: listed apart in the source
asf1b_human ASF1B = asf1b_human ASF1B (UniProt Q9NVP2)
Sequence of asf1b_human ASF1B (Q9NVP2 whole entry): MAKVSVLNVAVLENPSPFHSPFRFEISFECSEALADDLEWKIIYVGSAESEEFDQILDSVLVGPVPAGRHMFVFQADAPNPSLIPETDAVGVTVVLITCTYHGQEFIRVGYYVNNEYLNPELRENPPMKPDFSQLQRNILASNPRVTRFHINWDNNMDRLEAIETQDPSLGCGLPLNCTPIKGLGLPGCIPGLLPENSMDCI

Sequence of DAXX, Q9UER7-1 (Q9UER7 whole entry): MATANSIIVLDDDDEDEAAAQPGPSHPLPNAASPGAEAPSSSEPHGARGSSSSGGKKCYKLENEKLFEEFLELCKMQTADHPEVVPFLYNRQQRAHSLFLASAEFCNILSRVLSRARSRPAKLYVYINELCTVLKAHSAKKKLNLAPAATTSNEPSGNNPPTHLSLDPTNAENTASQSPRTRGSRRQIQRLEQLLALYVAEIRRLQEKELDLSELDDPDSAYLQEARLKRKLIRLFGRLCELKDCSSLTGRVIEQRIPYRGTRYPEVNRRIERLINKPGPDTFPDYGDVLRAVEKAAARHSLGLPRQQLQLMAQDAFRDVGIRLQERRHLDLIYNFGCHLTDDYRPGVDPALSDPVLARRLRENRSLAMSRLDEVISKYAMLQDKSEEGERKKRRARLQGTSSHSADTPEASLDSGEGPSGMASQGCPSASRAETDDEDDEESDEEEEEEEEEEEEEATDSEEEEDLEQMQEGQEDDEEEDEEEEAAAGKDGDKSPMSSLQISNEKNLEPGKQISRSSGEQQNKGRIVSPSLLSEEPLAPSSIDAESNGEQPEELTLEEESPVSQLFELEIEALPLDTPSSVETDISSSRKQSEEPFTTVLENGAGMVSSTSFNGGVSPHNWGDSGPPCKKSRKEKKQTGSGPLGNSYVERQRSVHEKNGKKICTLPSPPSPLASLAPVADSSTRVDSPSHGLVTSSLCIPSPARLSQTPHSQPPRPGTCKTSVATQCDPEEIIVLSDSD
Sequence of caf1a_human CHAF1A (Q13111 whole entry): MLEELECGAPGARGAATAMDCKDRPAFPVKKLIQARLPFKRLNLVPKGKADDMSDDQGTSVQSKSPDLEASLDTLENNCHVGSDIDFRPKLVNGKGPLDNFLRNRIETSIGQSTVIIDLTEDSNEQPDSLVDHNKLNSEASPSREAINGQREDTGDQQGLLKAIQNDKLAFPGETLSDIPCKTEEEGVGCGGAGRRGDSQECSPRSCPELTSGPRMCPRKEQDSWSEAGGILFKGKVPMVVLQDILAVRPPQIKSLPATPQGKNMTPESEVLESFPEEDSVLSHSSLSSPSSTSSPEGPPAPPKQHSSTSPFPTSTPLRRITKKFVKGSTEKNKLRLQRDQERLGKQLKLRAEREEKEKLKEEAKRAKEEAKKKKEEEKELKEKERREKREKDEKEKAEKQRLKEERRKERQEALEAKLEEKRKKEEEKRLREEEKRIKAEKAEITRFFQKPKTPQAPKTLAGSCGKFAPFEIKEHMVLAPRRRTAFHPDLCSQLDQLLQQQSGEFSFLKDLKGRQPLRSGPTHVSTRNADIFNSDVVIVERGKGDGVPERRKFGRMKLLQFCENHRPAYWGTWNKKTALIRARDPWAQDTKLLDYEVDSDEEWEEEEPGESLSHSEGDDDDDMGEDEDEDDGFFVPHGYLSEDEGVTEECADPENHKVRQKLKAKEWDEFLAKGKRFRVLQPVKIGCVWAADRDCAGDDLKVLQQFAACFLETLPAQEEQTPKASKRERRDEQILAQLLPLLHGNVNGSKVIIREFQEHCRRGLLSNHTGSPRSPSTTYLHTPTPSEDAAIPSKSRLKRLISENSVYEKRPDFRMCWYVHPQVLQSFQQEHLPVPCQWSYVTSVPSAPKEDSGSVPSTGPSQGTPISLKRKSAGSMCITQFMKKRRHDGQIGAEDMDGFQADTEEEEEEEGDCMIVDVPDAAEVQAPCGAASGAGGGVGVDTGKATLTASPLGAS

For “Histone H3.3 (Homo sapiens) (from UniProt P84243) G91M”, the “effect of a mutation on the interaction” value (caf1a_human CHAF1A) was “increasing interaction strength” and the “effect of a mutation on the interaction” value (DAXX, Q9UER7-1 [1]) was “decreasing interaction strength”.
“Histone H3.2 (Homo sapiens) (from UniProt Q71DI3) M91G” was tested, and the “effect of a mutation on the interaction” value (DAXX, Q9UER7-1 [2]) was “increasing interaction strength”.
“Histone H3.3 (Homo sapiens) (from UniProt P84243) C111E” was tested, and the “effect of a mutation on the interaction” value (asf1b_human ASF1B) was “disrupting interaction strength”.
